The values that follow come from US20200190168A1 (US Dept. of Health and Human Services, published 2020).

For experiment [1], the target named is T1, gp350 B95-8 (2-425) D296R Avi-His (Epstein Barr Virus (B95-8), UniProt P03200 2-425).
T1 construct: also called D296R gp350 probe; D296R mutant
Nature of the experiment: flow cytometry staining of IgG+ B cells in human PBMCs, co-stained with anti-CD21. A general note: In flow cytometry, cells or beads pass a laser one at a time.

Experiment [2] has as its target T2, gp350 B95-8 (2-425) D296R/I160R Avi-His (Epstein Barr Virus (B95-8), UniProt P03200 2-425).
T2 construct: also called gp350 D296R/I160R probe
Described as above.

In experiment [3] the target is T2, gp350 B95-8 (2-425) D296R/I160R Avi-His. Description: biolayer interferometry (Octet), CR2-Ig on protein A biosensors. (BLI is a label-free optical method that tracks binding on a fibre tip over time.)
Experiment [4] deals with gp350 B95-8 (2-425) D296R/P158R Avi-His (Epstein Barr Virus (B95-8), UniProt P03200 2-425). The experiment is described as above.
The target in experiment [5] is T3, gp350 B95-8 (2-425) D296R/P158N*/I160T Avi-His (Epstein Barr Virus (B95-8), UniProt P03200 2-425).
T3 construct: also called D296R/P158N/I160T (glycan addition at 158)
The description is as above.

Experiment [6] addresses gp350 B95-8 (2-425) D296R/P158R/I160R Avi-His (Epstein Barr Virus (B95-8), UniProt P03200 2-425). Described as above.

B1: CR2 (complement receptor 2, CD21) on IgG+ B cells of human PBMCs (receptor)
chain: ISCGSPPPILNGRISYYSTPIAVGTVIRYSCSGTFRLIGEKSLLCITKDKVDGTWDKPAPKCEYFNKYSSCPEPIVPGGYKIRGSTPYRHGDSVTFACKTNFSMNGNKSVWCQANNMWGPTRLPTCVSVFPLECPALPMIHNGHHTSENVGSIAPGLSVTYSCESGYLLVGEKIINCLSSGKWSAVPPTCEEARCKSLGRFPNGKVKEPPILRVGVTANFFCDEGYRLQGPPSSRCVIAGQGVAWTKMPVCEEIFCPSPPPILNGRHIGNSLANVSYGSIVTYTCDPDPEEGVNFILIGESTLRCTVDSQKTGTWSGPAPRCELSTSAVQCPHPQILRGRMVSGQKDRYTYNDTVIFACMFGFTLKGSKQIRCNAQGTWEPSAPVCEKECQAPPNILNGQKEDRHMVRFDPGTSIKYSCNPGYVLVGEESIQCTSEGVWTPPVPQCKVAACEATGRQLLTKPQHQFVRPDVNSSCGEGYKLSGSVYQECQGTIPWFMEIRLCKEITCPPPPVIYNGAHTGSSLEDFPYGTTVTYTCNPGPERGVEFSLIGESTIRCTSNDQERGTWSGPAPLCKLSLLAVQCSHVHIANGYKISGKEAPYFYNDTVTFKCYSGFTLKGSSQIRCKADNTWDPEIPVCEKETCQHVRQSLQELPAGSRVELVNTSCQDGYQLTGHAYQMCQDAENGIWFKKIPLCKVIHCHPPPVIVNGKHTGMMAENFLYGNEVSYECDQGFYLLGEKKLQCRSDSKGHGSWSGPSPQCLRSPPVTRCPNPEVKHGYKLNKTHSAYSHNDIVYVDCNPGFIMNGSRVIRCHTDNTWVPGVPTCIKKAFIGCPPPPKTPNGNHTGGNIARFSPGMSILYSCDQGYLLVGEALLLCTHEGTWSQPAPHCKEVNCSSPADMDGIQKGLEPRKMYQYGAVVTLECEDGYMLEGSPQSQCQSDHQWNPPLAVCRSRSLAPVLCGIAAGLILLTFLIVITLYVISKHRARNYYTDTSQKEAFHLEAREVYSVDPYNPAS
notes: whole, on cells; also called gp350 receptor
Regarding B1, the binding result in experiment [1] is given as “binds”; in experiment [2], “no binding”.

B2: CR2-Ig (chimeric molecule of CR2 SCR1-2 domain and IgG Fc region) (Fc fusion)
chain: ISCGSPPPILNGRISYYSTPIAVGTVIRYSCSGTFRLIGEKSLLCITKDKVDGTWDKPAPKCEYFNKYSSCPEPIVPGGYKIRGSTPYRHGDSVTFACKTNFSMNGNKSVWCQANNMWGPTRLPTCVSVFPLE
notes: domain: SCR1-2; not shown: IgG Fc region
As to B2, the binding result in experiment [3], in experiment [4], in experiment [5] and in experiment [6] was “no binding” each time.
